The supplement of paper PMC9170038

Tested on: K4 kissing-loop RNA reporter
Test: apparent KD of K4 kissing-loop reporter; higher = weaker reporter binding
Conditions: Eterna round: R107
Protocol: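 RNA-MaP round R107: designed RNA switches with theophylline, tryptophan, arginine or FMN aptamers are transcribed on-chip within common flanks. They are titrated with a labelled K4 kissing-loop RNA reporter in RNA-MaP buffer (100 mM Tris pH 7.5, 80 mM KCl, 4 mM MgCl2), without ligand or with the indicated ligand. Median apparent KD per design.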

[1] = input ligand: theophylline 20 uM
[2] = input ligand: tryptophan 2.4 mM
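Further: bound reporter read as fluorescence of individual clusters on recovered sequencing chips by microscopy, with normalized cluster intensities fitted with a binding model.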

Sequence	apparent KD of K4 kissing-loop reporter (input ligand: FMN 200 uM)	apparent KD of K4 kissing-loop reporter (input ligand: arginine 13.2 mM)	apparent KD of K4 kissing-loop reporter (input ligand: none)	apparent KD of K4 kissing-loop reporter [1]	apparent KD of K4 kissing-loop reporter [2]
ACCCGGGCCCGAAAGGGCCCGGGAAGAGAUACCAGCAGCGAAAGCUGCCCUUGGCAGCUCACUUAGUGAUGUUGAGUAUAGGGUA [#22 K4 Theophylline A Same State]	1100 nM	463 nM	279 nM	185 nM	361 nM
ACCUAGUAGACAGGAUAUCACCAUGACAGUGAUGUUGUCAUGCUCGAUUUGAGGAAACUCAGAUCGUGAGAAGGGUCUAACGACU [FMN B SS t7]	136 nM	149 nM	170 nM	146 nM	158 nM
ACGCGCGCGAGUGAUGUUCGGAGCGGCUGGCAGGAUAUGUAGCAAUGCAGAAGGGUCGUGGCGCUCCCUCCUGAAGGAGGGAGCG [#2 Exclusion - FMN A Attempt #25 (HarryS)]	198 nM	307 nM	351 nM	432 nM	347 nM
ACGCGCGCGAGUGAUGUUCGGAGCGGCUGGCAGGAUAUGUAGCAAUGCAGAAGGGUCGUGGCUGCUGGUAGGAAACUACUGGCAG [#2 Exclusion - FMN A Attempt #4 (HarryS)]	252 nM	316 nM	424 nM	358 nM	441 nM
ACGCUGGUGAAUAACACUAGCGAAAAUUCGCGAGGACCGGUACGGCCGCCACUCGCUAACUGCGAGUGAUGUUCGAUAAUAAAAU [Mat - Mod of OpenEnded 3 - D8]	233 nM	67.5 nM	165 nM	169 nM	112 nM
ACGUGCACCAGUGAUGUUGGAAAAUAUGAAGGAGCGGGAGAAAACCCAGGUAGGUCGCAUAAUAGCACGAGCCACGAAAGUGGCA	191 nM	81.4 nM	122 nM	196 nM	107 nM
ACUGAGCAUGCGGCCGCCACUUCAGAACGUCGCCCAGAGGGCGACGCCUCCGCAGUGAUGUUGUGGAGGACCGGGCAUGUUCAGA [Omei KL Tryp B Exc A v5]	419 nM	360 nM	355 nM	451 nM	420 nM
AGACCUCAGUGAUGUUGAGGUAACACUGAUACCAGCGACUUGAUUCGCCCUUGGCAGCAGUCCACCGAGGUAUCUGAUCAGGUCA [#25 K4 Theophylline A Exclusion]	159 nM	158 nM	137 nM	168 nM	140 nM
AGACUACCACACUGUCAAUAGACAGUGAACUAGGAUAUGCUGAUAAGCAGAAGGAGUGAUGUUCCUCGGUAGUCAAUAAAAUAAU [FmnAX 13 C67]	419 nM	255 nM	303 nM	346 nM	235 nM
AGACUACCACACUGUCAAUAGACAGUGUACUAGGAUAUGCUGAUAAGCAGAAGGAGUGAUGUUCCAAGGUAGUCAAUAAAAUAAU [FmnAX 13 U28+A66]	393 nM	213 nM	206 nM	291 nM	206 nM
AGACUACUGAUAGGAUAUAACAUCCUAGUCGUAUACCGAAAGGUAUACGAUUCCCUUCUAGUGAUGUUAGAAGGGUCGGUAGUCA [Omei KL FMN B Exc B v12]	78.5 nM	69.2 nM	71.3 nM	60.9 nM	78.9 nM
AGACUUCACCGAAGGAGCGACGUAGCCUAGUGAUGUUAGGCGCGAGAGAAAUCUCGUAUACGUCAGGUAGGUCGCGGUGAAGUCA [Omei KL Arginine B SS C v4]	163 nM	129 nM	152 nM	126 nM	146 nM
AGAGAGGUGUUUUUUUGAAGUGAGUAAUGGCGAGGACCGGUACGGCCGCCACUCGGGUGAUGUUAGUGAUGUUGAUGUAGUGAUG [yrymullin]	79.3 nM	60.8 nM	66.3 nM	114 nM	65.6 nM
AGAGAUAUAUGAGGAUAUGAGAUAGUUAAUGAGUGAGUUAUAGUGUUGUUUGGUUAGUGAUGUUAUUUAGAAGGCGUGAGUGAUG [immumullin]	130 nM	94.7 nM	110 nM	119 nM	82.5 nM
AGAGAUAUAUGAGGAUAUGGGAUAGUUAAUGAGUUAGUUUUAGUGUUGUUUGGUUAGUGAUGUUAUUUAGAAGGCGUGAGUGAUG [rxxvgmullin]	106 nM	75.8 nM	81.7 nM	109 nM	71.1 nM
